In patent US20140161804A1 (AbbVie / Abbott, published 2014):

How the values were obtained:
Human IL-17A [1] = target: T1, Human IL-17A (human, UniProt Q16552 20-155, limits assumed); experiment: ELISA, captured antibody, biotin-human IL-17 titrated
T1 construct: Biotinylated in the ELISAs; purified recombinant protein in SPR; also called hIL17A; hIL-17
Experimental: (§1) The following protocol is used to characterize the binding of IL-17 antibodies to human IL-17 by enzyme-linked immunosorbent assay (ELISA). An ELISA plate was coated with 50 μl per well of goat anti mouse IgG-Fc at 2 μg/ml, overnight at 4° C. The plate was washed 3 times with PBS/Tween. 50 μl Mab diluted to 1 μg/ml in PBS/0.1% BSA was added to appropriate wells and incubated for 1 hour at room temperature (RT). The plate was washed 3 times with PBS/Tween. 50 μl of serial diluted biotin-human IL-17 was added to appropriate wells and incubated for 1 hour at RT. The plate was washed 3 times with PBS/Tween. 50 μl of streptavidin-HRP diluted 1:10,000 in PBS/0.1% BSA was added to appropriate wells and incubated for 1 hour at RT. The plate was washed 3 times with PBS/Tween. 50 μl of TMB was added to appropriate wells and the reaction allowed to proceed for 1 minute. The reaction was stopped with 50 μl/well 2N H₂SO₄ and the absorbance read at 450 nm.

Human IL-17A [2] = target: T1, Human IL-17A; experiment: SPR (Biacore T200), antibody captured by anti-human IgG Fc, antigen in solution
Experimental: (§2) The binding of antibodies to purified recombinant IL-17 proteins was determined by surface plasmon resonance-based measurements with a Biacore® T200 instrument (GE Healthcare) using running HBS-EP (10 mM HEPES [pH 7.4], 150 mM NaCl, 3 mM EDTA, and 0.005% surfactant P20) containing 0.1 mg/ml BSA at 25° C. All chemicals were obtained from Biacore® AB (GE Healthcare) or otherwise from a source as described in the text. Approximately 5000 RU of goat anti-human IgG (Fcg) fragment specific polyclonal antibody (Pierce Biotechnology Inc, Rockford, Ill.) diluted in 10 mM sodium acetate (pH 4.5) was directly immobilized across a CM5 research grade biosensor chip using a standard amine coupling kit according to manufacturer's instructions and procedures at 25 μg/ml. Unreacted moieties on the biosensor surface were blocked with ethanolamine. Modified carboxymethyl dextran surface in flowcell 2, 3 and 4 were used as a reaction surface. Modified carboxymethyl dextran with Goat IgG in flow cell 1 was used as the reference surface. For kinetic analysis, rate equations derived from the 1:1 Langmuir binding model were fitted simultaneously to association and dissociation phases of all six injections (using global fit analysis with local float for Rmax) with the use of Biacore T200 Evaluation software v.1.0. Purified antibodies were diluted in HEPES-buffered saline for capture across goat anti-human IgG specific reaction surfaces. Antibodies to be captured as ligand (1-5 μg/ml) were injected over reaction matrices at a flow rate of 50 μl/minute. Association phase was monitored for 5 minute, while dissociation phase was monitored for 10-60 min to accommodate for slower off-rates. The association and dissociation rate constants, ka (unit M-1 s-1) and kd (unit s-1) were determined under a continuous flow rate of 50 μl/minute. Rate constants were derived by making kinetic binding measurements at six different antigen concentrations ranging from 0.78 nM to 100 nM, depending on the species of IL-17 tested. The association ka, dissociation rate kd and equilibrium dissociation constant KD were calculated with the use of the same Biacore T200 Evaluation software v.1.0.

Cynomolgus monkey IL-17A = target: T2, Cynomolgus monkey IL-17A (cynomolgus monkey, UniProt A0A2K5TTB0 24-155); experiment: as above
T2 construct: also called Cyno IL-17AA; Cyno IL17AA
T2 sequence (A0A2K5TTB0 entry or part of it): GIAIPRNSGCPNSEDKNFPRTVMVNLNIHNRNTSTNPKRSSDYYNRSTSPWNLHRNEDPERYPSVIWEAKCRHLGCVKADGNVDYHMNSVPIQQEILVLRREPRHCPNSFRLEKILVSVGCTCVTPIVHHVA
Experimental: as §2

Human TNF = target: T3, Human TNF (human, UniProt P01375 77-233); experiment: ELISA, captured DVD-Ig, biotin-human TNF titrated
T3 construct: Biotinylated in the ELISA; purified recombinant protein in SPR; also called h TNF; huTNF
T3 sequence (P01375 77-233 limits assumed): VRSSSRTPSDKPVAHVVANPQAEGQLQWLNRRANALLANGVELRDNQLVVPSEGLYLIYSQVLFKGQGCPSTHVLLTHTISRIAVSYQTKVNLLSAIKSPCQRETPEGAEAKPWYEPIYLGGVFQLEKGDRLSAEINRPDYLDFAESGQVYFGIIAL
Experimental: as §1, with “TNF/IL-17 DVD-Ig proteins” for “IL-17 antibodies”, “human TNF and” for “human”, “biotin-human TNF or” for “biotin-human”

Human IL-17A [3] = target: T1, Human IL-17A; experiment: ELISA, captured DVD-Ig, biotin-human IL-17 titrated
Experimental: as §1, with “TNF/IL-17 DVD-Ig proteins” for “IL-17 antibodies”, “human TNF and” for “human”, “biotin-human TNF or” for “biotin-human”

T1 sequence (Q16552 20-155 limits assumed): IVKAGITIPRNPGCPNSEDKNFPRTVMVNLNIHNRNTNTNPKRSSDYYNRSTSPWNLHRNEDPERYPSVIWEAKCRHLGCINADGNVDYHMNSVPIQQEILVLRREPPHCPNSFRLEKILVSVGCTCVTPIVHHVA

Binder	EC50 (Human IL-17A [1]) [nM]	Kd (Human IL-17A [2]) [nM]	koff (Human IL-17A [2]) [s⁻¹]	kon (Human IL-17A [2]) [M⁻¹ s⁻¹]	Kd (Cynomolgus monkey IL-17A) [nM]	koff (Cynomolgus monkey IL-17A) [s⁻¹]	kon (Cynomolgus monkey IL-17A) [M⁻¹ s⁻¹]	EC50 (Human TNF) [nM]	EC50 (Human IL-17A [3]) [nM]
IL17-h10F7M-B20 hIgG1/K mut (antibody, V domains shown, Full length human IgG1/kappa, IgG1 mut(234,235); also called h10F7-B20; J439M1S2(H)3 #B20) VH: EVQLVQSGAEVKKPGSSVKVSCKASGYTFTDYEIHWVRQAPGQGLEWMGVNDPESGGTFYNQKFDGRVTLTADESTSTAYMELSSLRSEDTAVYYCTRYDKWYSFEGMDIWGQGTTVTVSS VL: DIQMTQSPSSLSASVGDRVTITCRASSGIISYIDWFQQKPGKAPKRLIYATFDLASGVPSRFSGSGSGTDYTLTISSLQPEDFATYYCRQVGSYPETFGQGTKLEIK	0.07	0.00214	6.27e-06	2.92e+06	–	–	–	–	–
IL17-h10F7M10 hIgG1/K mut (antibody, V domains shown, Full length human IgG1/kappa, IgG1 mut(234,235) (HC plasmid pHybE-hCg1,z,non-a,mut(234,235); LC pHybE-hCk); also called J439M1S3R5#10; PR-1262986) VH: EVQLVQSGAEVKKPGSSVKVSCKASGYTFDDYEIHWVRQAPGQGLEWIGVNDPESGGTFYNQKFDGRATLTADKSTSTAYMELSSLRSEDTAVYYCTRYDKWDSFYGMDYWGQGTTVTVSS VL: DIQMTQSPSSLSASVGDRVTITCSASSGSISYIDWFQQKPGKAPKRLIYATFELASGVPSRFSGSGSGTDFTLTISSLQPEDFATYYCHQLGSYPDTFGQGTKLEIK	0.03	0.00153	6.8e-06	4.45e+06	0.00106	4.4e-06	4.14e+06	–	–
IL17-h10F7M11 hIgG1/K mut (antibody, V domains shown, Full length human IgG1/kappa, IgG1 mut(234,235); also called J439M1S3R5#11; PR-1263009) VH: EVQLVQSGAEVKKPGSSVKVSCKASGYTFTDYEIHWVRQAPGQGLEWMGVNDPESGGTFYNQKFDGRVTLTADESTSTAYMELSSLRSEDTAVYYCTRYSKWDSFDGMDYWGQGTTVTVSS VL: DIQMTQSPSSLSASVGDRVTITCRASSGIISYIDWFQQKPGKAPKRLIYATFDLASGVPSRFSGSGSGTDYTLTISSLQPEDFATYYCRQVGSYPETFGQGTKLEIK	0.04	0.00159	7.24e-06	4.53e+06	0.00086	3.88e-06	4.5e+06	–	–
IL17-h10F7M-A6 hIgG1/K mut (antibody, V domains shown, Full length human IgG1/kappa, IgG1 mut(234,235); also called h10F7-A6; J439M1S2(H)3 #A6) VH: EVQLVQSGAEVKKPGSSVKVSCKASGYTFTDYEIHWVRQAPGQGLEWIGVNDPDSGGTLYNQKFDGRVTLTADESTSTAYMELSSLRSEDTAVYYCTRYDKWYSFEGMDIWGQGTTVTVSS VL: DIQMTQSPSSLSASVGDRVTITCSASQGIRSYIDWFQQKPGKSPKRLIYATFDLASGVPSRFSGSGSGTDYTLTISSLQPEDFATYYCRQVGNYPGTFGQGTKLEIK	0.08	0.0015	4.48e-06	2.99e+06	–	–	–	–	–
IL17-h10F7M-A11 hIgG1/K mut (antibody, V domains shown, Full length human IgG1/kappa, IgG1 mut(234,235); also called h10F7-A11; J439M1S2(H)3 #A11) VH: EVQLVQSGAEVKKPGSSVKVSCKASGYTFTDYEIHWVRQAPGQGLEWIGVNDPESGGTFYNQKFDGRVTLSADESTSTAYMELSSLRSEDTAVYYCTRYDKYWSFEGMDYWGQGTTVTVSS VL: DIQMTQSPSSLSASVGDRVTITCRASSGIISYIDWFQQKPGKAPKRLIYATFDLASGVPSRFSGSGSGTDYTLTISSLQPEDFATYYCRQVGSYPETFGQGTKLEIK	0.04	0.0021	7.68e-06	3.64e+06	–	–	–	–	–
IL17-h10F7M-A16 hIgG1/K mut (antibody, V domains shown, Full length human IgG1/kappa, IgG1 mut(234,235); also called h10F7-A16; J439M1S2(H)3 #A16) VH: EVQLVQSGAEVKKPGSSVKVSCKASGYTFSDYEIHWVRQAPGQGLEWMGVNDPESGGTFYNQKFDGRVTLTADESTSTAYMELSSLRSEDTAVYYCTRYDKWYSFEGMDIWGQGTTVTVSS VL: DIQMTQSPSSLSASVGDRVTITCSASQGIRSYIDWFQQKPGKSPKRLIYATFDLASGVPSRFSGSGSGTDYTLTISSLQPEDFATYYCRQVGNYPGTFGQGTKLEIK	0.07	0.00151	4.52e-06	2.99e+06	–	–	–	–	–
IL17-h10F7M-B13 hIgG1/K mut (antibody, V domains shown, Full length human IgG1/kappa, IgG1 mut(234,235); also called h10F7-B13; J439M1S2(H)3 #B13) VH: EVQLVQSGAEVKKPGSSVKVSCKASGYTFSDYEIHWVRQAPGQGLEWMGVNDPESGGTFYNQKFDGRVTLTADESTSTAYMELSSLRSEDTAVYYCTRYDKYWSFEGMDYWGQGTTVTVSS VL: DIQMTQSPSSLSASVGDRVTITCRASSGIISYIDWFQQKPGKAPKRLIYATFDLASGVPSRFSGSGSGTDYTLTISSLQPEDFATYYCRQVGSYPETFGQGTKLEIK	0.06	0.00256	6.88e-06	2.68e+06	–	–	–	–	–
hMAK199-1-h10F7-M10.8 QL DVD-Ig (bispecific antibody, human IgG1, kappa, L234A L235A, DVD-Ig; IgG1 (234,235) mut with QL mutations, kappa; GS10 linkers) heavy: EVQLVQSGAEVKKPGASVKVSCKASGYTFANYGIIWVRQAPGQGLEWMGWINTYTGKPTYAQKFQGRVTMTTDTSTSTAYMELSSLRSEDTAVYYCARKLFTTMDVTDNAMDYWGQGTTVTVSSGGGGSGGGGSEVQLVQSGAEVKKPGSSVKVSCKASGYTFDDYEIHWVRQAPGQGLEWIGVNDPESGGTFYNQKFDGRATLTADKSTSTAYMELSSLRSEDTAVYYCTRYDKWDSFYGMDYWGQGTTVTVSSASTKGPSVFPLAPSSKSTSGGTAALGCLVKDYFPEPVTVSWNSGALTSGVHTFPAVLQSSGLYSLSSVVTVPSSSLGTQTYICNVNHKPSNTKVDKKVEPKSCDKTHTCPPCPAPEAAGGPSVFLFPPKPKDQLMISRTPEVTCVVVDVSHEDPEVKFNWYVDGVEVHNAKTKPREEQYNSTYRVVSVLTVLHQDWLNGKEYKCKVSNKALPAPIEKTISKAKGQPREPQVYTLPPSREEMTKNQVSLTCLVKGFYPSDIAVEWESNGQPENNYKTTPPVLDSDGSFFLYSKLTVDKSRWQQGNVFSCSVLHEALHNHYTQKSLSLSPGK light: DIQMTQSPSSLSASVGDRVTITCRASQDISQYLNWYQQKPGKAPKLLIYYTSRLQSGVPSRFSGSGSGTDFTLTISSLQPEDFATYFCQQGNTWPPTFGQGTKLEIKRGGSGGGGSGDIQMTQSPSSLSASVGDRVTITCSASSGSISYIDWFQQKPGKAPKRLIYATFELASGVPSRFSGSGSGTDFTLTISSLQPEDFATYYCHQLGSYPDTFGQGTKLEIKRTVAAPSVFIFPPSDEQLKSGTASVVCLLNNFYPREAKVQWKVDNALQSGNSQESVTEQDSKDSTYSLSSTLTLSKADYEKHKVYACEVTHQGLSSPVTKSFNRGEC	–	–	–	–	–	–	–	0.183	0.063
